Laboratory results published in PMC6624373.
Values joined by “and” are separate entries in the source; they are usually repeats but may differ in a detail not shown here. Equal entries are not always repeated.

Columns and labels:
Conditions in all cases: remark: other sources report otherwise
[1] = target: T1, lamin A (human, mature form, without tags, wild type) (human), P02545; assay: AUC; sedimentation velocity, 0.3 mg/mL lamin A in Tris or NaPi buffer, 45,000 rpm, 20 °C, interference optics, c(s) model
T1 chain: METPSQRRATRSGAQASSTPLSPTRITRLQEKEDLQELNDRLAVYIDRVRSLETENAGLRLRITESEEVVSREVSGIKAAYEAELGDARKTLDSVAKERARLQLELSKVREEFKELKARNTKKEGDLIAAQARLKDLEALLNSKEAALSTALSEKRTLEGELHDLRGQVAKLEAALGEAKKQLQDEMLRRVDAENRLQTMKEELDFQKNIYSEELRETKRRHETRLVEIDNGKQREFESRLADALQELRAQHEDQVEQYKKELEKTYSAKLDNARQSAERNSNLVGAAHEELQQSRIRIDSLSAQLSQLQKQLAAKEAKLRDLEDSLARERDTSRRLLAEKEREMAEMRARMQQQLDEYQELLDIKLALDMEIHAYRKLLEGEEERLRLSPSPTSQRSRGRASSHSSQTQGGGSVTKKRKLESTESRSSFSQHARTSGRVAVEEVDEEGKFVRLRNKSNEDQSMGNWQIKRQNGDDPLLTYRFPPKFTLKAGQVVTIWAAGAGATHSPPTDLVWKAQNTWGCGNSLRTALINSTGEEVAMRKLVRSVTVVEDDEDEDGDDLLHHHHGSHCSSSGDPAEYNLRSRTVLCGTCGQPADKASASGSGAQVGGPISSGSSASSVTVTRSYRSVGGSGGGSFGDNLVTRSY

[2] = target: T1, lamin A (human, mature form, without …); assay: as above
[3] = target: T2, 6xHis-tagged lamin A (human, mature form) (human), P02545; assay: pull-down; Ni-NTA pull-down of a 1:1 mix of un-tagged and 6xHis-tagged lamin A monomers after gel-extraction and refolding
T2 chain: T1 chain

[4] = target: T1, lamin A (human, mature form, without …); assay: cross-linking; 0.4 mg/mL lamin A in NaPi buffer, EDC:S-NHS (1:4:8.8 by weight lamin A:EDC:S-NHS), 30 min, room temperature; product bands resolved by SDS-PAGE, gel-extracted and seen by rotary metal shadowing EM
[5] = target: T1, lamin A (human, mature form, without …); assay: rotary metal shadowing EM; un-cross-linked lamin A at 0.1 mg/mL in Tris buffer (25 mM Tris, 250 mM NaCl, pH 8.0) or NaPi buffer (100 mM NaPi, 250 mM NaCl, pH 8.0), 30% glycerol, sprayed on mica; dimers and head-to-tail tetramers

stoichiometry N [1]: 4
stoichiometry N [2]: 2
percent of un-tagged lamin A retained on the beads [3]: 50%
stoichiometry N [4]: 2 and 4
dimers seen per head-to-tail tetramer (EM) (dimers per tetramer) [5]: 20 to 25
stoichiometry N [5]: 2 and 4
B1: lamin A (human, mature form, without tags, wild type), P02545 1-646 (natural protein)
chain: T1 chain
